# Reference: patent publication US20110311522A1
# Residue numbers refer to the chain shown, from its start.
# B1: 13D4 single chain antibody (scFv)
# scFv: QVQLQQSGAELMKPGASVKISCKATGYTFSGHWIEWVKQRPGHGLEWIGEILPGSGNIHYNEKFKGKATFAADTSSNTAYMQLSSLTSEDSAVYYCARLGTTAVERDWYFDVWGQGTTVTESLEDPRVPSSNSGGGGSGGGGSGGGGSDIVMTQSQKFMSASVGDRVSVTCKASQNVGTHLAWYQQKPGQSPKALIYSASYRYSGVPDRFTGSGSGTDFTLTISNVQSGDLADYFCQQYNNFPLTFGAGTKLEIKR
# B2: monoclonal antibody 13D4 (antibody, V domains shown)
# VH: QVQLQQSGAELMKPGASVKISCKATGYTFSGHWIEWVKQRPGHGLEWIGEILPGSGNIHYNEKFKGKATFAADTSSNTAYMQLSSLTSEDSAVYYCARLGTTAVERDWYFDVWGQGTTVTESL
# VL: DIVMTQSQKFMSASVGDRVSVTCKASQNVGTHLAWYQQKPGQSPKALIYSASYRYSGVPDRFTGSGSGTDFTLTISNVQSGDLADYFCQQYNNFPLTFGAGTKLEIKR
# B3: 13D4 chimeric antibody SV (antibody, V domains shown)
# VH: B2 VH with T118S, E121V, L123S
# VL: B2 VL
# B4: monoclonal antibody 20A11 (antibody, V domains shown)
# VH: B2 VH with T118S, E121V, L123S
# VL: B2 VL
# B5: 8G9 chimeric antibody (antibody, V domains shown)
# VH: QVQLQQPGVELVRPGASVKLSCKASGYTFTSFWMNWVKQRPDQGLEWIGRIDPYDSETHYNQKFKDKAILTVDKSSSTAYMQLSSLTSEDSAVYYCGRGIATLMVLPDYWGQGTSVTVSS
# VL: DILMTQSPSSMSVSLGDTVSITCHASQDISSNMGWLQQKPGKSLKGLIYHGTNLEDGVPSRFSGSGSGPDYSLTISSLESEDFADYYCVQYIQFPWTFGGGTKLEIKR
# Tests used:
# Test in all cases: cell-based or functional assay
# [1] = molecular target: hemagglutinin (HA) of virus strain Ck/HK/Yu22/02 (H5N1) (H5N1 avian influenza virus, strain Ck/HK/Yu22/02)
# [2] = molecular target: hemagglutinin (HA) of H5N1 virus strain G1 (H5N1 avian influenza virus, strain G1)
# [3] = molecular target: hemagglutinin (HA) of H5N1 virus strain FJ1.5 (H5N1 avian influenza virus, strain FJ1.5)
# [4] = molecular target: 14 strains of non-H5 viruses (H1~H13, Chicken NDV)
# [5] = molecular target: hemagglutinin (HA) of H5N1 virus strain VTM1.1 (H5N1 avian influenza virus, strain VTM1.1)
# [6] = molecular target: hemagglutinin (HA) of H5N1 virus strain IDN6.1 (H5N1 avian influenza virus, strain IDN6.1)
# [7] = molecular target: hemagglutinin (HA) of H5N1 virus strain GD3.1 (H5N1 avian influenza virus, strain GD3.1)
# [8] = molecular target: hemagglutinin (HA) of H5N1 virus strain IDN1.1 (H5N1 avian influenza virus, strain IDN1.1)
# [9] = molecular target: hemagglutinin (HA) of H5N1 virus strain C2 (H5N1 avian influenza virus, strain C2)
# [10] = molecular target: hemagglutinin (HA) of H5N1 virus strain B8 (H5N1 avian influenza virus, strain B8)
# [11] = molecular target: hemagglutinin (HA) of H5N1 virus strain B4 (H5N1 avian influenza virus, strain B4)
# [12] = molecular target: hemagglutinin (HA) of H5N1 virus strain A8 (H5N1 avian influenza virus, strain A8)
# [13] = molecular target: hemagglutinin (HA) of H5N1 virus strain B3 (H5N1 avian influenza virus, strain B3)
# [14] = molecular target: hemagglutinin (HA) of H5N1 virus strain C3 (H5N1 avian influenza virus, strain C3)
# [15] = molecular target: hemagglutinin (HA) of H5N1 virus strain F2 (H5N1 avian influenza virus, strain F2)
# [16] = molecular target: hemagglutinin (HA) of H5N1 virus strain D3 (H5N1 avian influenza virus, strain D3)
# [17] = molecular target: hemagglutinin (HA) of H5N1 virus strain E2 (H5N1 avian influenza virus, strain E2)
# [18] = molecular target: hemagglutinin (HA) of H5N1 virus strain IDN3.1 (H5N1 avian influenza virus, strain IDN3.1)
# [19] = molecular target: hemagglutinin (HA) of H5N1 virus strain B6 (H5N1 avian influenza virus, strain B6)
# [20] = molecular target: hemagglutinin (HA) of H5N1 virus strain GD4.1 (H5N1 avian influenza virus, strain GD4.1)
# [21] = molecular target: hemagglutinin (HA) of H5N1 virus strain A2 (H5N1 avian influenza virus, strain A2)
# [22] = molecular target: hemagglutinin (HA) of H5N1 virus strain B1 (H5N1 avian influenza virus, strain B1)
# [23] = molecular target: hemagglutinin (HA) of H5N1 virus strain F3 (H5N1 avian influenza virus, strain F3)
# [24] = molecular target: hemagglutinin (HA) of H5N1 virus strain H2 (H5N1 avian influenza virus, strain H2)
# [25] = molecular target: hemagglutinin (HA) of H5N1 virus strain A7 (H5N1 avian influenza virus, strain A7)
# [26] = molecular target: hemagglutinin (HA) of H5N1 virus strain YN2.1 (H5N1 avian influenza virus, strain YN2.1)
# [27] = molecular target: hemagglutinin (HA) of H5N1 virus strain VTM4.1 (H5N1 avian influenza virus, strain VTM4.1)
# [28] = molecular target: hemagglutinin (HA) of H5N1 virus strain QH1.1 (H5N1 avian influenza virus, strain QH1.1)
# [29] = molecular target: H5 virus strain (fifteen strains of H5N1 viruses)
# [30] = molecular target: hemagglutinin (HA) of H5N1 virus strain E1 (H5N1 avian influenza virus, strain E1)
# [31] = molecular target: hemagglutinin (HA) of H5N1 virus strain D2 (H5N1 avian influenza virus, strain D2)
# [32] = molecular target: hemagglutinin (HA) of H5N1 virus strain VNM2-2.1 (H5N1 avian influenza virus, strain VNM2-2.1)
# [33] = molecular target: hemagglutinin (HA) of H5N1 virus strain D1 (H5N1 avian influenza virus, strain D1)
# [34] = molecular target: hemagglutinin (HA) of H5N1 virus strain A3 (H5N1 avian influenza virus, strain A3)
# [35] = molecular target: hemagglutinin (HA) of H5N1 virus strain F4 (H5N1 avian influenza virus, strain F4)
# [36] = molecular target: hemagglutinin (HA) of H5N1 virus strain IDN8.1 (H5N1 avian influenza virus, strain IDN8.1)
# [37] = molecular target: hemagglutinin (HA) of H5N1 virus strain HN3.1 (H5N1 avian influenza virus, strain HN3.1)
# [38] = molecular target: hemagglutinin (HA) of H5N1 virus strain B7 (H5N1 avian influenza virus, strain B7)
# [39] = molecular target: hemagglutinin (HA) of H5N1 virus strain A1 (H5N1 avian influenza virus, strain A1)
# [40] = molecular target: hemagglutinin (HA) of H5N1 virus strain GD1.1 (H5N1 avian influenza virus, strain GD1.1)
# [41] = molecular target: hemagglutinin (HA) of H5N1 virus strain Mixed1.1 (H5N1 avian influenza virus, strain Mixed1.1)
# [42] = molecular target: hemagglutinin (HA) of H5N1 virus strain A6 (H5N1 avian influenza virus, strain A6)
binder,measurement,setting,value
B1,hemagglutination inhibition (HI) activity (fold dilution (from 0.18 mg/ml)),[1],8
B2,HI titer (hemagglutinin inhibition assay) (n (HI titer = 2^n)),[2],4
same,Hamaglutinin inhibition titer,[3],12800 titer
same,Neutralization titer,[3],12800 titer
same,"Positive number/total virus number, hemagglutination inhibition assay (of 14 virus strains positive)",[4],0
same,Hamaglutinin inhibition titer,[5],6400 titer
same,Neutralization titer,[5],12800 titer
same,Hamaglutinin inhibition titer,[6],12800 titer
same,Neutralization titer,[6],12800 titer
same,Hamaglutinin inhibition titer,[7],12800 titer
same,Neutralization titer,[7],12800 titer
same,Hamaglutinin inhibition titer,[8],12800 titer
same,Neutralization titer,[8],12800 titer
same,HI titer (hemagglutinin inhibition assay) (n (HI titer = 2^n)),[9],3
same,HI titer (hemagglutinin inhibition assay) (n (HI titer = 2^n)),[10],> 8
same,HI titer (hemagglutinin inhibition assay) (n (HI titer = 2^n)),[11],5
same,HI titer (hemagglutinin inhibition assay) (n (HI titer = 2^n)),[12],5
same,HI titer (hemagglutinin inhibition assay) (n (HI titer = 2^n)),[13],3
same,HI titer (hemagglutinin inhibition assay) (n (HI titer = 2^n)),[14],4
same,HI titer (hemagglutinin inhibition assay) (n (HI titer = 2^n)),[15],5
same,HI titer (hemagglutinin inhibition assay) (n (HI titer = 2^n)),[16],6
same,HI titer (hemagglutinin inhibition assay) (n (HI titer = 2^n)),[17],6
same,Hamaglutinin inhibition titer,[18],12800 titer
same,Neutralization titer,[18],12800 titer
same,HI titer (hemagglutinin inhibition assay) (n (HI titer = 2^n)),[19],> 8
same,Hamaglutinin inhibition titer,[20],12800 titer
same,Neutralization titer,[20],12800 titer
same,HI titer (hemagglutinin inhibition assay) (n (HI titer = 2^n)),[21],7
same,HI titer (hemagglutinin inhibition assay) (n (HI titer = 2^n)),[22],> 8
same,HI titer (hemagglutinin inhibition assay) (n (HI titer = 2^n)),[23],> 8
same,HI titer (hemagglutinin inhibition assay) (n (HI titer = 2^n)),[24],3
same,HI titer (hemagglutinin inhibition assay) (n (HI titer = 2^n)),[25],4
same,Hamaglutinin inhibition titer,[26],12800 titer
same,Neutralization titer,[26],12800 titer
same,Hamaglutinin inhibition titer,[27],12800 titer
same,Neutralization titer,[27],12800 titer
same,Hamaglutinin inhibition titer,[28],12800 titer
same,Neutralization titer,[28],12800 titer
same,"Positive number/total virus number, hemagglutination inhibition assay (of 15 virus strains positive)",[29],15
same,HI titer (hemagglutinin inhibition assay) (n (HI titer = 2^n)),[30],7
same,HI titer (hemagglutinin inhibition assay) (n (HI titer = 2^n)),[31],5
same,Hamaglutinin inhibition titer,[32],12800 titer
same,Neutralization titer,[32],12800 titer
same,HI titer (hemagglutinin inhibition assay) (n (HI titer = 2^n)),[33],5
same,HI titer (hemagglutinin inhibition assay) (n (HI titer = 2^n)),[34],6
same,HI titer (hemagglutinin inhibition assay) (n (HI titer = 2^n)),[35],1
same,Hamaglutinin inhibition titer,[36],12800 titer
same,Neutralization titer,[36],12800 titer
same,Hamaglutinin inhibition titer,[37],12800 titer
same,Neutralization titer,[37],12800 titer
same,HI titer (hemagglutinin inhibition assay) (n (HI titer = 2^n)),[38],7
same,HI titer (hemagglutinin inhibition assay) (n (HI titer = 2^n)),[39],> 8
same,Hamaglutinin inhibition titer,[40],6400 titer
same,Neutralization titer,[40],12800 titer
same,Hamaglutinin inhibition titer,[41],6400 titer
same,Neutralization titer,[41],12800 titer
same,HI titer (hemagglutinin inhibition assay) (n (HI titer = 2^n)),[42],3
B3,HI titer (hemagglutinin inhibition assay) (n (HI titer = 2^n)),[2],3
same,HI titer (hemagglutinin inhibition assay) (n (HI titer = 2^n)),[9],4
same,HI titer (hemagglutinin inhibition assay) (n (HI titer = 2^n)),[10],6
same,HI titer (hemagglutinin inhibition assay) (n (HI titer = 2^n)),[11],4
same,HI titer (hemagglutinin inhibition assay) (n (HI titer = 2^n)),[12],6
same,HI titer (hemagglutinin inhibition assay) (n (HI titer = 2^n)),[13],2
same,HI titer (hemagglutinin inhibition assay) (n (HI titer = 2^n)),[14],4
same,HI titer (hemagglutinin inhibition assay) (n (HI titer = 2^n)),[15],5
same,HI titer (hemagglutinin inhibition assay) (n (HI titer = 2^n)),[16],5.5
same,HI titer (hemagglutinin inhibition assay) (n (HI titer = 2^n)),[17],3
same,HI titer (hemagglutinin inhibition assay) (n (HI titer = 2^n)),[19],< 8
same,HI titer (hemagglutinin inhibition assay) (n (HI titer = 2^n)),[21],7
same,HI titer (hemagglutinin inhibition assay) (n (HI titer = 2^n)),[22],> 8
same,HI titer (hemagglutinin inhibition assay) (n (HI titer = 2^n)),[23],6.5
same,HI titer (hemagglutinin inhibition assay) (n (HI titer = 2^n)),[24],4
same,HI titer (hemagglutinin inhibition assay) (n (HI titer = 2^n)),[25],3.5
same,HI titer (hemagglutinin inhibition assay) (n (HI titer = 2^n)),[30],6
same,HI titer (hemagglutinin inhibition assay) (n (HI titer = 2^n)),[31],5
same,HI titer (hemagglutinin inhibition assay) (n (HI titer = 2^n)),[33],5
same,HI titer (hemagglutinin inhibition assay) (n (HI titer = 2^n)),[34],5
same,HI titer (hemagglutinin inhibition assay) (n (HI titer = 2^n)),[35],1
same,HI titer (hemagglutinin inhibition assay) (n (HI titer = 2^n)),[38],6.5
same,HI titer (hemagglutinin inhibition assay) (n (HI titer = 2^n)),[39],> 8
same,HI titer (hemagglutinin inhibition assay) (n (HI titer = 2^n)),[42],5.5
B4,Hamaglutinin inhibition titer,[3],12800 titer
same,Neutralization titer,[3],12800 titer
same,"Positive number/total virus number, hemagglutination inhibition assay (of 14 virus strains positive)",[4],0
same,Hamaglutinin inhibition titer,[5],12800 titer
same,Neutralization titer,[5],12800 titer
same,Hamaglutinin inhibition titer,[6],12800 titer
same,Neutralization titer,[6],12800 titer
same,Hamaglutinin inhibition titer,[7],12800 titer
same,Neutralization titer,[7],12800 titer
same,Hamaglutinin inhibition titer,[8],12800 titer
same,Neutralization titer,[8],12800 titer
same,Hamaglutinin inhibition titer,[18],12800 titer
same,Neutralization titer,[18],12800 titer
same,Hamaglutinin inhibition titer,[20],12800 titer
same,Neutralization titer,[20],12800 titer
same,Hamaglutinin inhibition titer,[26],12800 titer
same,Neutralization titer,[26],12800 titer
same,Hamaglutinin inhibition titer,[27],12800 titer
same,Neutralization titer,[27],12800 titer
same,Hamaglutinin inhibition titer,[28],12800 titer
same,Neutralization titer,[28],12800 titer
same,"Positive number/total virus number, hemagglutination inhibition assay (of 15 virus strains positive)",[29],15
same,Hamaglutinin inhibition titer,[32],12800 titer
same,Neutralization titer,[32],12800 titer
same,Hamaglutinin inhibition titer,[36],12800 titer
same,Neutralization titer,[36],12800 titer
same,Hamaglutinin inhibition titer,[37],12800 titer
same,Neutralization titer,[37],6400 titer
same,Hamaglutinin inhibition titer,[40],12800 titer
same,Neutralization titer,[40],12800 titer
same,Hamaglutinin inhibition titer,[41],12800 titer
same,Neutralization titer,[41],12800 titer
B5,hemagglutination inhibition (HI) activity (fold dilution),[1],16
